Measured values as given in patent US8444963B2 (priority 2006, dated 2013).
Numbering of substitutions follows the chain as printed. In names and notes the source's numbering stands.

B1: NT01CX2047: C. novyi-NT extracellular lipase, the liposome-disrupting factor (SEQ ID NO: 1), expressed in E. coli with oligohistidine tag (protein, listed as Clostridium novyi)
chain: MQSKLKKFISTISVSLFTLASVLTFSMAKPVNAFAKENQKVSQNNYPIILCHGCNGWGRTENFGTVAFGARYYWGGNVDLQQKLIENGFTTYTAAVGPLSSNWDRACELYAQIKGGRVDYGEAHAKKHGHSRYGRYYRGFYPEWGTKDENGNIRKVHLIGHSQGGQTIRMLTTLLGQGKQEEISATGENTNELFKGGHDWVSGLITLASPHDGTTLADMKGTDAAAAIGIGAVGSMLGNISNSDIIFDLKVDQWGLKRKPSESFISYFNRCATSKMWNSKDICSVDLSTNGAVEQNKWVKAQPNVYYFSWACCGTIRNPISIFGHHMASPIRMSDKGLYNVQWALQAQLMGTYSRNNPRRAIPVIDSKWWPNDGYVNTISENGPKAGSTDEIVNYNGTPQIGKWNFMGVKDMDHEDIIGRHWNGAPNFFIDMAQMLRNLPVTE
modifications: oligohistidine tag
B2: S127G (protein, listed as Clostridium novyi)
chain: B1 chain with S162G

Key:
[1] = tested on: syngeneic CT26 colorectal tumors; assay: CT26 tumors in BALB/c mice treated with C. novyi-NT spores and free or liposomal drugs; assay type: in vivo, mouse; settings: 300 million spores i.v., drug 10 mg/kg single i.v. dose 16 h later
Method: Animal models. […] Tumor volume was calculated as length×width^2×0.5.

[2] = Lipase assay of E. coli lysates; assay type: biochemical; settings: lysates of IPTG-induced E. coli clones
From the text: FIG. 4A-4D. Functional analysis of liposomase. Plasmids carrying the wt or mutant forms of the NT01CX2047 gene were introduced into E. coli. “Cured” bacteria represent those originally containing the wt gene and grown in the absence of selective antibiotics until the plasmid was lost. Cellular lysates from three independent clones of each bacterial strain were generated after induction of expression by IPTG and used for the following: (FIG. 4A) Western blotting with an antibody to oligohistidine confirmed the presence of similar amounts of wt and mutant proteins in the bacteria. (FIG. 4B) Lipase activity was analyzed using the fluorescent lipase substrate, 1,2-dioleoyl-3-pyrenedecanoyl-rac-glycerol. (FIG. 4C) Liposome-disrupting activity was assessed using Doxil. (FIG. 4D) Liposome-disrupting activity of lipases purified from ten different organisms were assessed using Doxil. Means and standard deviations of data from at least two independent experiments are shown in (FIG. 4B) to (FIG. 4D).
Protein Expression. […]
Lipase Assay. […] Increase in fluorescence caused by catalytic release of pyrenedecanoic acid was kinetically measured over 2 hours using excitation at 320 nm and emission at 405 nm. All measurements were performed at 37° C. in a FluoStar Galaxy fluorescence plate reader. […]

[3] = Liposome-disruption assay (doxorubicin release from Doxil); assay type: biochemical; settings: lysates of IPTG-induced E. coli incubated with liposomal doxorubicin
Method: Liposome-Disruption Assay. Samples were mixed with DOXIL™ liposomal doxorubicin (100 μl sample+5 μl DOXIL™ liposomal doxorubicin in a 96-well plate or 50 μl sample+2 μl DOXIL™ in a 384-well plate). Increase in fluorescence caused by the dequenching of released doxorubicin was kinetically measured over 30-60 minutes using excitation at 470 nm and emission at 590 nm (5). All measurements were performed at 37° C. in a fluorescence plate reader. Liposome-disrupting activity was defined as the maximum slope of the release curve.
Lipase Panel Experiment. Purified NT01CX2047 enzyme and nine other purified lipases were dissolved in 100 mM Tris-HCl, pH 7.5 to a concentration of 1 mg/ml. Fifty μl of Assay Buffer (100 mM Tris-HCl pH 7.5+0.125M NaCl) was pipetted into 384-well plates, followed by 2 μl of the relevant lipase and 1 μl of DOXIL. Samples were assayed in duplicate for liposome-disrupting activity as described above.
To test the liposome-disrupting activity of the lysates described above, we incubated them with liposomal doxorubicin. […] When this strain was cultured without selective antibiotics until the bacteria lost the expression vector by random segregation, the liposome-disrupting activity was lost (FIG. 4C). Moreover, the cells that had lost the plasmid were able to grow as robustly as the parental E. coli and the S127X mutant.

E. coli = assay: Growth of E. coli expressing NT01CX2047 forms after IPTG induction; assay type: cell-based; settings: after induction by IPTG
Method: Protein Expression. The expression vectors described above were transformed by heat shock into the Rosetta-gami(DE3)pLysS strain of E. coli (Novagen, Madison, Wis.). Three clones per expression construct were picked and each was cultured in 20 ml HyperBroth (AthenaES, Baltimore, Md.) under antibiotic selection (100 μg/ml ampicillin+34 μg/ml chloramphenicol) at room temperature. As a negative control, bacteria carrying the pLip plasmid were “cured” of their plasmid through growth in the absence of selective antibiotics. Loss of plasmid was verified by PCR. Expression was induced using IPTG for 1 hour, reaching an OD600˜0.2, after which the bacteria were pelleted by centrifugation and resuspended in 100 mM Tris-HCl, pH 7.5. Lysates were prepared by sonication in a Bioruptor sonicating bath (Diagenode, Belgium) and centrifugation at ˜14,000 g was performed to remove insoluble matter. […]
To examine the properties of the protein encoded by NT01CX2047, we cloned its ORF into an inducible expression vector which was then introduced into a genetically modified E. coli strain that permitted expression of C. novyi-NT genes (which have a codon usage very different than that of E. coli). […] Lysates from these cells were tested for lipase activity as measured by hydrolysis of 1,2-dioleoyl-3-pyrenedecanoyl-rac-glycerol. […]

Row | Molecule | tumor response (tumor volume) [1] | lipase activity [2] | liposome-disrupting activity [3] | growth of the expressing E. coli cells (apparent toxicity of gene product) (E. coli)
1 | COc1cccc2c1C(=O)c1c(O)c3c(c(O)c1C2=O)C[C@@](O)(C(=O)CO)C[C@@H]3O[C@H]1C[C@H](N)[C@H](O)[C@H](C)O1 [doxorubicin] | Neither doxorubicin nor Doxil alone resulted in prolonged therapeutic effects |  |  | 
2 | B1 |  | exhibited lipase activity | potent activity | grew poorly
3 | B2 |  | devoid of lipase activity | retained substantial liposome-disrupting activity | same poor growth as wild-type NT01CX2047
